Measured values as given in patent US20180022780A1 (Bayer, published 2018).
Changes are numbered by the printed parent chain. One block for each binder: values may come before it. Bridge positions count the residues as written; N and C are the ends. Square brackets hold non-standard residues; d marks the D form. Ends that are not written are not given here. * marks the point of attachment. Palmitoyl = CCCCCCCCCCCCCCCC(=O)*; NMeI = CC[C@H](C)[C@H](NC)C(=O)O; Orn = NCCC[C@H](N)C(=O)O; Dab = NCC[C@H](N)C(=O)O; Dap = NC[C@H](N)C(=O)O

Experiments:
[1] = target: human adrenomedullin-receptor (human, UniProt Q16602 23-461); assay: cell-based or functional assay
Sequence of human adrenomedullin-receptor (Q16602 23-461): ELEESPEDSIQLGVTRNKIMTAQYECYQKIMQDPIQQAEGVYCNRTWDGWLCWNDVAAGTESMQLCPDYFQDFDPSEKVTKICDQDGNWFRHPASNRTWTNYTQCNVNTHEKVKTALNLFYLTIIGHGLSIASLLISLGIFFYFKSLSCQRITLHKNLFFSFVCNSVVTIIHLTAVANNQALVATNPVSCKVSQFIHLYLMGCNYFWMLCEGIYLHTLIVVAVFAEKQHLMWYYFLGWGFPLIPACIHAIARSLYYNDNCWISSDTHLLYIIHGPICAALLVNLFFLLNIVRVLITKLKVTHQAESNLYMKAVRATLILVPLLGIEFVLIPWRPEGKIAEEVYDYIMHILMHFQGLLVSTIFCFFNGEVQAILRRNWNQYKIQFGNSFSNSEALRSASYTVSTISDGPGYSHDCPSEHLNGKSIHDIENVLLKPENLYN

[2] = target: CLR fused to EYFP with RAMP2 fused to ECFP; assay: cell-based or functional assay
Sequence of CLR fused to EYFP with RAMP2 fused to ECFP (Q16602 whole entry, chain 1 of 2, the tested form may be a part): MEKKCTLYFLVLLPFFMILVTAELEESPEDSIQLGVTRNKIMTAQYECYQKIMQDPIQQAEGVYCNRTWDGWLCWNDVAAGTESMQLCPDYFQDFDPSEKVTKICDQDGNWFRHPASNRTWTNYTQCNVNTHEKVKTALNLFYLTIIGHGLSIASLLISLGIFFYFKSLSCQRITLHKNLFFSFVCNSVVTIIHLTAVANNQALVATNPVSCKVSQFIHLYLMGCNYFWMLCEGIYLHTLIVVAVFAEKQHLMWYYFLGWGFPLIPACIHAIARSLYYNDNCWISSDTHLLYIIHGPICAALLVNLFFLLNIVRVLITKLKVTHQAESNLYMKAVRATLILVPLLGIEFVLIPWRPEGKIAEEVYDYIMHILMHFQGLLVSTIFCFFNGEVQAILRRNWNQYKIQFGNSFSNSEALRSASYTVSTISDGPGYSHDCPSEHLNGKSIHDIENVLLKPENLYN
Sequence of CLR fused to EYFP with RAMP2 fused to ECFP (O60895 whole entry, chain 2 of 2, further chain, the tested form may be a part): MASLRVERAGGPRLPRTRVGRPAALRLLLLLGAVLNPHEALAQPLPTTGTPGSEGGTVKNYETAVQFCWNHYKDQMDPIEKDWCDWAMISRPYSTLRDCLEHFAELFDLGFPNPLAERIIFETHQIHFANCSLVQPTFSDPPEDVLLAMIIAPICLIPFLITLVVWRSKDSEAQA

Binder: GGERFGT[Dab]TVQKLAHQIYQFTDKDKDNVAPRSKISPQGY-NH2 (lactam 3-8) [[G^14, (E^16, Dab^21)lac]ADM(14-52)]
EC50 [nM], aequorin luminescence of CHO adrenomedullin-receptor reporter cells [1]: 19.6 nM
EC50 [nM], cAMP assay (CRE-luciferase luminescence, HEK293 cells) [2]: 41 nM

Binder: GGERFGT[Orn]TVQKLAHQIYQFTDKDKDNVAPRSKISPQGY-NH2 (lactam 3-8) [[G^14, (E^16, Orn^21)lac]ADM(14-52)]
EC50 [nM], aequorin luminescence of CHO adrenomedullin-receptor reporter cells [1]: > 1000 nM
EC50 [nM], cAMP assay (CRE-luciferase luminescence, HEK293 cells) [2]: 21 nM

B3: [G^14, (Dab^16, E^21)lac]ADM(14-52) (peptide)
peptide: GG[Dab]RFGTETVQKLAHQIYQFTDKDKDNVAPRSKISPQGY-NH2
modifications: lactam 3-8; N-terminus assumed
SMILES: CC[C@H](C)[C@H](NC(=O)[C@H](CCC(N)=O)NC(=O)[C@H](Cc1c[nH]cn1)NC(=O)[C@H](C)NC(=O)[C@H](CC(C)C)NC(=O)[C@H](CCCCN)NC(=O)[C@H](CCC(N)=O)NC(=O)[C@@H](NC(=O)[C@@H](NC(=O)[C@@H]1CCC(=O)NCC[C@H](NC(=O)CNC(=O)CN)C(=O)N[C@@H](CCCNC(=N)N)C(=O)N[C@@H](Cc2ccccc2)C(=O)NCC(=O)N[C@@H]([C@@H](C)O)C(=O)N1)[C@@H](C)O)C(C)C)C(=O)N[C@@H](Cc1ccc(O)cc1)C(=O)N[C@@H](CCC(N)=O)C(=O)N[C@@H](Cc1ccccc1)C(=O)N[C@H](C(=O)N[C@@H](CC(=O)O)C(=O)N[C@@H](CCCCN)C(=O)N[C@@H](CC(=O)O)C(=O)N[C@@H](CCCCN)C(=O)N[C@@H](CC(=O)O)C(=O)N[C@@H](CC(N)=O)C(=O)N[C@H](C(=O)N[C@@H](C)C(=O)N1CCC[C@H]1C(=O)N[C@@H](CCCNC(=N)N)C(=O)N[C@@H](CO)C(=O)N[C@@H](CCCCN)C(=O)N[C@H](C(=O)N[C@@H](CO)C(=O)N1CCC[C@H]1C(=O)N[C@@H](CCC(N)=O)C(=O)NCC(=O)N[C@@H](Cc1ccc(O)cc1)C(N)=O)[C@@H](C)CC)C(C)C)[C@@H](C)O
EC50 [nM], aequorin luminescence of CHO adrenomedullin-receptor reporter cells [1]: 34 nM
EC50 [nM], cAMP assay (CRE-luciferase luminescence, HEK293 cells) [2]: 84 nM

B4: [G^14, (E^16, K^21)lac]ADM(14-52) (peptide)
peptide: GGERFGTKTVQKLAHQIYQFTDKDKDNVAPRSKISPQGY-NH2
modifications: lactam 3-8; N-terminus assumed
SMILES: CC[C@H](C)[C@H](NC(=O)[C@H](CCC(N)=O)NC(=O)[C@H](Cc1c[nH]cn1)NC(=O)[C@H](C)NC(=O)[C@H](CC(C)C)NC(=O)[C@H](CCCCN)NC(=O)[C@H](CCC(N)=O)NC(=O)[C@@H](NC(=O)[C@@H](NC(=O)[C@@H]1CCCCNC(=O)CC[C@H](NC(=O)CNC(=O)CN)C(=O)N[C@@H](CCCNC(=N)N)C(=O)N[C@@H](Cc2ccccc2)C(=O)NCC(=O)N[C@@H]([C@@H](C)O)C(=O)N1)[C@@H](C)O)C(C)C)C(=O)N[C@@H](Cc1ccc(O)cc1)C(=O)N[C@@H](CCC(N)=O)C(=O)N[C@@H](Cc1ccccc1)C(=O)N[C@H](C(=O)N[C@@H](CC(=O)O)C(=O)N[C@@H](CCCCN)C(=O)N[C@@H](CC(=O)O)C(=O)N[C@@H](CCCCN)C(=O)N[C@@H](CC(=O)O)C(=O)N[C@@H](CC(N)=O)C(=O)N[C@H](C(=O)N[C@@H](C)C(=O)N1CCC[C@H]1C(=O)N[C@@H](CCCNC(=N)N)C(=O)N[C@@H](CO)C(=O)N[C@@H](CCCCN)C(=O)N[C@H](C(=O)N[C@@H](CO)C(=O)N1CCC[C@H]1C(=O)N[C@@H](CCC(N)=O)C(=O)NCC(=O)N[C@@H](Cc1ccc(O)cc1)C(N)=O)[C@@H](C)CC)C(C)C)[C@@H](C)O
EC50 [nM], aequorin luminescence of CHO adrenomedullin-receptor reporter cells [1]: 20.5 nM
EC50 [nM], cAMP assay (CRE-luciferase luminescence, HEK293 cells) [2]: 31 nM

B5: [G^14, (C^16→U^21)]ADM(14-52) (peptide)
peptide: GGCRFGTXTVQKLAHQIYQFTDKDKDNVAPRSKISPQGY
modifications: positions 16 and 21 (residues 3 and 8 of the letters) together are cystathionine (C^16→U^21, thioether disulfide bond mimetic); X stands for the printed U at 21; C-terminal amide
EC50 [nM], aequorin luminescence of CHO adrenomedullin-receptor reporter cells [1]: 0.07 nM
EC50 [nM], cAMP assay (CRE-luciferase luminescence, HEK293 cells) [2]: 3.3 nM

B6: [G^14, (U^16→C^21)]ADM(14-52) (peptide)
peptide: B5 peptide with C3X, X8C
modifications: positions 16 and 21 (residues 3 and 8 of the letters) together are cystathionine (U^16→C^21, thioether disulfide bond mimetic); X stands for the printed U at 16; C-terminal amide
EC50 [nM], aequorin luminescence of CHO adrenomedullin-receptor reporter cells [1]: 1.54 nM
EC50 [nM], cAMP assay (CRE-luciferase luminescence, HEK293 cells) [2]: 6.8 nM

B8: [K^14(PAM), (C^16→U^21)]ADM(14-52) (peptide)
peptide: B5 peptide with G1K
modifications: palmitic acid (PAM) on the side chain of K14 (residue 1 of the letters); positions 16 and 21 (residues 3 and 8) together are cystathionine (C^16→U^21, thioether); X stands for the printed U at 21; C-terminal amide
EC50 [nM], aequorin luminescence of CHO adrenomedullin-receptor reporter cells [1]: 24 nM

B9: [G^14, (U^16→U^21)]ADM(14-52) (peptide)
peptide: B5 peptide with C3X
modifications: positions 16 and 21 (residues 3 and 8 of the letters) together are 2,7-diaminosuberic acid (U^16→U^21, biscarba disulfide bond mimetic); X stands for the printed U; C-terminal amide
EC50 [nM], aequorin luminescence of CHO adrenomedullin-receptor reporter cells [1]: > 1000 nM
EC50 [nM], cAMP assay (CRE-luciferase luminescence, HEK293 cells) [2]: > 1000 nM

B10: [G^14, (K^16, E^21)lac]ADM(14-52) (peptide)
peptide: GGKRFGTETVQKLAHQIYQFTDKDKDNVAPRSKISPQGY-NH2
modifications: lactam 3-8; N-terminus assumed
SMILES: CC[C@H](C)[C@H](NC(=O)[C@H](CCC(N)=O)NC(=O)[C@H](Cc1c[nH]cn1)NC(=O)[C@H](C)NC(=O)[C@H](CC(C)C)NC(=O)[C@H](CCCCN)NC(=O)[C@H](CCC(N)=O)NC(=O)[C@@H](NC(=O)[C@@H](NC(=O)[C@@H]1CCC(=O)NCCCC[C@H](NC(=O)CNC(=O)CN)C(=O)N[C@@H](CCCNC(=N)N)C(=O)N[C@@H](Cc2ccccc2)C(=O)NCC(=O)N[C@@H]([C@@H](C)O)C(=O)N1)[C@@H](C)O)C(C)C)C(=O)N[C@@H](Cc1ccc(O)cc1)C(=O)N[C@@H](CCC(N)=O)C(=O)N[C@@H](Cc1ccccc1)C(=O)N[C@H](C(=O)N[C@@H](CC(=O)O)C(=O)N[C@@H](CCCCN)C(=O)N[C@@H](CC(=O)O)C(=O)N[C@@H](CCCCN)C(=O)N[C@@H](CC(=O)O)C(=O)N[C@@H](CC(N)=O)C(=O)N[C@H](C(=O)N[C@@H](C)C(=O)N1CCC[C@H]1C(=O)N[C@@H](CCCNC(=N)N)C(=O)N[C@@H](CO)C(=O)N[C@@H](CCCCN)C(=O)N[C@H](C(=O)N[C@@H](CO)C(=O)N1CCC[C@H]1C(=O)N[C@@H](CCC(N)=O)C(=O)NCC(=O)N[C@@H](Cc1ccc(O)cc1)C(N)=O)[C@@H](C)CC)C(C)C)[C@@H](C)O
EC50 [nM], aequorin luminescence of CHO adrenomedullin-receptor reporter cells [1]: > 1000 nM
EC50 [nM], cAMP assay (CRE-luciferase luminescence, HEK293 cells) [2]: > 1000 nM

Next, values leading:

EC50 [nM], aequorin luminescence of CHO adrenomedullin-receptor reporter cells [1]: > 1000 nM
EC50 [nM], cAMP assay (CRE-luciferase luminescence, HEK293 cells) [2]: 156 nM
B1: [K^14(PAM), (K^16,E^21)lac]ADM(14-52) (peptide)
peptide: K(Palmitoyl)GKRFGTETVQKLAHQIYQFTDKDKDNVAPRSKISPQGY-NH2
modifications: lactam 3-8; N-terminus assumed
SMILES: CCCCCCCCCCCCCCCC(=O)NCCCC[C@H](N)C(=O)NCC(=O)N[C@H]1CCCCNC(=O)CC[C@@H](C(=O)N[C@H](C(=O)N[C@H](C(=O)N[C@@H](CCC(N)=O)C(=O)N[C@@H](CCCCN)C(=O)N[C@@H](CC(C)C)C(=O)N[C@@H](C)C(=O)N[C@@H](Cc2c[nH]cn2)C(=O)N[C@@H](CCC(N)=O)C(=O)N[C@H](C(=O)N[C@@H](Cc2ccc(O)cc2)C(=O)N[C@@H](CCC(N)=O)C(=O)N[C@@H](Cc2ccccc2)C(=O)N[C@H](C(=O)N[C@@H](CC(=O)O)C(=O)N[C@@H](CCCCN)C(=O)N[C@@H](CC(=O)O)C(=O)N[C@@H](CCCCN)C(=O)N[C@@H](CC(=O)O)C(=O)N[C@@H](CC(N)=O)C(=O)N[C@H](C(=O)N[C@@H](C)C(=O)N2CCC[C@H]2C(=O)N[C@@H](CCCNC(=N)N)C(=O)N[C@@H](CO)C(=O)N[C@@H](CCCCN)C(=O)N[C@H](C(=O)N[C@@H](CO)C(=O)N2CCC[C@H]2C(=O)N[C@@H](CCC(N)=O)C(=O)NCC(=O)N[C@@H](Cc2ccc(O)cc2)C(N)=O)[C@@H](C)CC)C(C)C)[C@@H](C)O)[C@@H](C)CC)C(C)C)[C@@H](C)O)NC(=O)[C@H]([C@@H](C)O)NC(=O)CNC(=O)[C@H](Cc2ccccc2)NC(=O)[C@H](CCCNC(=N)N)NC1=O

EC50 [nM], aequorin luminescence of CHO adrenomedullin-receptor reporter cells [1]: 0.81 nM
EC50 [nM], cAMP assay (CRE-luciferase luminescence, HEK293 cells) [2]: 29 nM
B2: [K^14(PAM), (E^16, K^21)lac]ADM(14-52) (peptide)
peptide: K(Palmitoyl)GERFGTKTVQKLAHQIYQFTDKDKDNVAPRSKISPQGY-NH2
modifications: lactam 3-8; N-terminus assumed
SMILES: CCCCCCCCCCCCCCCC(=O)NCCCC[C@H](N)C(=O)NCC(=O)N[C@H]1CCC(=O)NCCCC[C@@H](C(=O)N[C@H](C(=O)N[C@H](C(=O)N[C@@H](CCC(N)=O)C(=O)N[C@@H](CCCCN)C(=O)N[C@@H](CC(C)C)C(=O)N[C@@H](C)C(=O)N[C@@H](Cc2c[nH]cn2)C(=O)N[C@@H](CCC(N)=O)C(=O)N[C@H](C(=O)N[C@@H](Cc2ccc(O)cc2)C(=O)N[C@@H](CCC(N)=O)C(=O)N[C@@H](Cc2ccccc2)C(=O)N[C@H](C(=O)N[C@@H](CC(=O)O)C(=O)N[C@@H](CCCCN)C(=O)N[C@@H](CC(=O)O)C(=O)N[C@@H](CCCCN)C(=O)N[C@@H](CC(=O)O)C(=O)N[C@@H](CC(N)=O)C(=O)N[C@H](C(=O)N[C@@H](C)C(=O)N2CCC[C@H]2C(=O)N[C@@H](CCCNC(=N)N)C(=O)N[C@@H](CO)C(=O)N[C@@H](CCCCN)C(=O)N[C@H](C(=O)N[C@@H](CO)C(=O)N2CCC[C@H]2C(=O)N[C@@H](CCC(N)=O)C(=O)NCC(=O)N[C@@H](Cc2ccc(O)cc2)C(N)=O)[C@@H](C)CC)C(C)C)[C@@H](C)O)[C@@H](C)CC)C(C)C)[C@@H](C)O)NC(=O)[C@H]([C@@H](C)O)NC(=O)CNC(=O)[C@H](Cc2ccccc2)NC(=O)[C@H](CCCNC(=N)N)NC1=O

EC50 [nM], aequorin luminescence of CHO adrenomedullin-receptor reporter cells [1]: 22 nM
EC50 [nM], cAMP assay (CRE-luciferase luminescence, HEK293 cells) [2]: 2 nM
Binder: K(Palmitoyl)G[Dap]RFGTETVQKLAHQIYQFTDKDKDNVAPRSKISPQGY-NH2 (lactam 3-8; also: acetate salt) [[K^14(PAM), (Dpr^16, E^21)lac]ADM(14-52)]

EC50 [nM], aequorin luminescence of CHO adrenomedullin-receptor reporter cells [1]: 11 nM
B7: PAM[K^14, (C^16→U^21)]ADM(14-52) (peptide)
peptide: B5 peptide with G1K
modifications: palmitic acid (PAM) on the N-terminus (alpha-amine of K14); positions 16 and 21 (residues 3 and 8 of the letters) together are cystathionine (C^16→U^21, thioether); X stands for the printed U at 21; C-terminal amide

EC50 [nM], aequorin luminescence of CHO adrenomedullin-receptor reporter cells [1]: 32 nM
EC50 [nM], cAMP assay (CRE-luciferase luminescence, HEK293 cells) [2]: 150 nM
Binder: K(Palmitoyl)GERFGTKTVQKLAHQIYQFTDKDKDNVAPRSK[NMeI]SPQGY-NH2 (lactam 3-8) [[K^14(PAM), (E^16,K^21)lac, N-Me-I^47]ADM(14-52)]
